{
  "source": "patent US20190071490A1",
  "about": "(BETH ISRAEL DEACONESS MEDICAL CENTER, published 2019)",
  "binders": {"B1": {"name": "G1 variant M73 Fab (Fab, V domains shown)", "VH": "EVQLVESGGGLVQPGGSLRLSCAASGFTFSNYWISWVRQAPGKGLEWVAEIRSKSDNYATHYADAVKGRFTISRDNAKNSLYLQMNSLRAEDTAVYYCTVYFDYGLAIQNYWGQGTLVTVSS", "VL": "EIVLTQSPATLSLSPGERATLSCKASKNVGTYVSWYQQKPGQAPRLLIYGASNRYSGIPARFSGSGSGTDFTLTISSLEPEDFAVYYCSQSYNYPYTFGQGTKLEIK", "notes": "Fab; constant domains as m1"}, "B2": {"name": "G1 variant M74 Fab (Fab, V domains shown)", "VH": "B1 VH with N57S, Y58S, D64E", "VL": "B1 VL", "notes": "Fab; constant domains as m1"}, "B3": {"name": "G1 variant M75 Fab (Fab, V domains shown)", "VH": "B1 VH with N57V, Y58S, D64E", "VL": "B1 VL", "notes": "Fab; constant domains as m1"}, "B4": {"name": "G1 variant M76 Fab (Fab, V domains shown)", "VH": "B1 VH with K54E, N57G, Y58S, D64E", "VL": "B1 VL with G30S, G50A, S56T", "notes": "Fab; constant domains as m1"}, "B5": {"name": "G1 variant M77 Fab (Fab, V domains shown)", "VH": "B1 VH with N57D, Y58S, D64E", "VL": "B1 VL with G30S, G50A, S56T", "notes": "Fab; constant domains as m1"}, "B6": {"name": "G1 variant M78 Fab (Fab, V domains shown)", "VH": "B1 VH with Y58T, D64E", "VL": "B1 VL with G30S, G50A, S56T", "notes": "Fab; constant domains as m1"}, "B7": {"name": "G1 variant M79 Fab (Fab, V domains shown)", "VH": "B1 VH with N57P, Y58S, D64E", "VL": "B1 VL with G30S, G50A, S56T", "notes": "Fab; constant domains as m1"}, "B8": {"name": "G1 variant M80 Fab (Fab, V domains shown)", "VH": "B1 VH with Y58V, D64E", "VL": "B1 VL with G30S, S56I", "notes": "Fab; constant domains as m1; printed L561 read as L56I"}, "B9": {"name": "G1 variant M81 Fab (Fab, V domains shown)", "VH": "B1 VH with Y58E, D64E", "VL": "B1 VL with G30S", "notes": "Fab; constant domains as m1"}, "B10": {"name": "G1 variant M82 Fab (Fab, V domains shown)", "VH": "B1 VH with K54E, Y58S, D64E", "VL": "B1 VL with G30V, A51H, S56T", "notes": "Fab; constant domains as m1"}, "B11": {"name": "G1 variant M83 Fab (Fab, V domains shown)", "VH": "B1 VH with Y58M, H61F, D64E", "VL": "B1 VL with G30V, A51H, S56T", "notes": "Fab; constant domains as m1"}, "B12": {"name": "G1 variant M84 Fab (Fab, V domains shown)", "VH": "B1 VH with K54N, Y58S, D64E", "VL": "B1 VL with G30V, A51H, S56T", "notes": "Fab; constant domains as m1"}, "B13": {"name": "human α-CGRP K35A (19-37) (peptide)", "peptide": "SGGVVKNNFVPTNVGSAAF-NH2", "modifications": "also: N-terminal biotin when on the chip", "notes": "the entry already carries K35A"}, "B14": {"name": "human α-CGRP K35E (19-37) (peptide)", "peptide": "SGGVVKNNFVPTNVGSEAF-NH2", "modifications": "also: N-terminal biotin when on the chip", "notes": "the entry already carries K35E"}, "B15": {"name": "human α-CGRP K35M (19-37) (peptide)", "peptide": "SGGVVKNNFVPTNVGSMAF-NH2", "modifications": "also: N-terminal biotin when on the chip", "notes": "the entry already carries K35M"}, "B16": {"name": "human α-CGRP P29A (19-37) (peptide)", "peptide": "SGGVVKNNFVATNVGSKAF-NH2", "notes": "the entry already carries P29A"}, "B17": {"name": "rat α-CGRP (1-37) (peptide)", "peptide": "SCNTATCVTHRLAGLLSRSGGVVKDNFVPTNVGSEAF-NH2", "modifications": "ends and bridges not checked; also: N-terminal biotin when captured on the SA chip", "notes": "also called rat α (1-37); α-rat"}, "B18": {"name": "human α-CGRP 1-36-COOH (peptide)", "peptide": "ACDTATCVTHRLAGLLSRSGGVVKNNFVPTNVGSKA-OH", "modifications": "ends and bridges not checked", "notes": "also called 1-36 (not amidated at the C-terminus)"}, "B19": {"name": "human α-CGRP 19-36 (peptide)", "peptide": "SGGVVKNNFVPTNVGSKA-OH", "notes": "also called 19-36-COOH; peptide fragment 19-36"}, "B20": {"name": "human α-CGRP 1-13-COOH (peptide)", "peptide": "ACDTATCVTHRLA-OH", "modifications": "ends and bridges not checked"}, "B21": {"name": "human α-CGRP 1-19-COOH (peptide)", "peptide": "ACDTATCVTHRLAGLLSRS-OH", "modifications": "ends and bridges not checked"}, "B22": {"name": "Human amylin (1-37) (peptide)", "peptide": "KCNTATCATQRLANFLVHSSNNFGAILSSTNVGSNTY-NH2", "modifications": "ends and bridges not checked"}, "B23": {"name": "Human calcitonin (1-32) (peptide)", "peptide": "CGNLSTCMLGTYTQDFNKFHTFPQTAIGVGAP-NH2", "modifications": "ends and bridges not checked"}, "B24": {"name": "Human adrenomedullin (1-52) (peptide)", "peptide": "YRQSMNNFQGLRSFGCRFGTCTVQKLAHQIYQFTDKDKDNVAPRSKISPQGY-NH2", "modifications": "ends and bridges not checked"}, "B25": {"name": "human α-CGRP 19-37-COOH (peptide)", "peptide": "SGGVVKNNFVPTNVGSKAF-OH", "notes": "also called 19-37 (not amidated at the C-terminus)"}, "B26": {"name": "human α-CGRP F37A (19-37) (peptide)", "peptide": "SGGVVKNNFVPTNVGSKAA-NH2", "notes": "the entry already carries F37A"}},
  "note": "Residue numbers refer to the chain shown, from its start. In names and notes the source's numbering stands. Ends that are not written are not given here.",
  "data": [
    {"biological_target": "T1, human α-CGRP 1-37 (WT) (human, C-terminal amide; N-terminal biotin when captured on the SA chip; 125I-labelled in the radioligand assay)", "T1 construct": "also called α-human", "T1 peptide": "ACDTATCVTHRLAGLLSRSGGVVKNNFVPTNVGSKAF", "assay": "Biacore, 37°C, Fab over CGRP on SA chip", "outline": "(§1)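 Fab analyte flowed over N-biotinylated CGRP captured at low density on a streptavidin chip in HBS-EP (pH 7.4), 1-min injections at 100 μL/min, at least 10 min dissociation.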", "units": {"Kd": "nM", "koff": "s⁻¹"}, "values": [
      {"binder": "B1", "Kd": 1.59, "koff": 0.000255},
      {"binder": "B2", "Kd": 3.73, "koff": 0.000597},
      {"binder": "B3", "Kd": 7.25, "koff": 0.00116},
      {"binder": "B4", "Kd": 2.28, "koff": 0.000364},
      {"binder": "B5", "Kd": 2.98, "koff": 0.000477},
      {"binder": "B6", "Kd": 8.19, "koff": 0.00131},
      {"binder": "B7", "Kd": 8.06, "koff": 0.00129},
      {"binder": "B8", "Kd": 13.1, "koff": 0.00209},
      {"binder": "B9", "Kd": 3.06, "koff": 0.00049},
      {"binder": "B10", "Kd": 5.48, "koff": 0.000877},
      {"binder": "B11", "Kd": 5.83, "koff": 0.000933},
      {"binder": "B12", "Kd": 6.75, "koff": 0.00108}
    ]},
    {"biological_target": "B17", "assay": "Biacore, 37°C, Fab over CGRP on SA chip", "outline": "as §1", "units": {"Kd": "nM", "koff": "s⁻¹"}, "values": [
      {"binder": "B1", "Kd": 167, "koff": 0.003},
      {"binder": "B2", "Kd": 335, "koff": 0.00603},
      {"binder": "B3", "Kd": 1040, "koff": 0.0187},
      {"binder": "B4", "Kd": 64.4, "koff": 0.00116},
      {"binder": "B5", "Kd": 794, "koff": 0.0143},
      {"binder": "B6", "Kd": 9280, "koff": 0.167},
      {"binder": "B7", "Kd": 10600, "koff": 0.19},
      {"binder": "B8", "Kd": 5520, "koff": 0.0993},
      {"binder": "B9", "Kd": 238, "koff": 0.00429},
      {"binder": "B10", "Kd": 388, "koff": 0.00699},
      {"binder": "B11", "binding result": "no binding"},
      {"binder": "B12", "Kd": 978, "koff": 0.0176}
    ]},
    {"biological_target": "antibody G1 Fab fragment", "assay": "Biacore competition: 50 nM G1 Fab with 10 µM peptide over human α-CGRP on chip", "from_the_text": "(§2) Y axis represents percentage of binding blocked by the presence of the competing peptide compared with the binding in the absence of the competing peptide.\n(§3) All these peptides are amidated at the C-terminus.", "units": {"percentage of binding blocked": "%"}, "values": [
      {"binder": "B13", "percentage of binding blocked": 100},
      {"binder": "B14", "percentage of binding blocked": 100},
      {"binder": "B15", "percentage of binding blocked": 100},
      {"binder": "B16", "percentage of binding blocked": 100},
      {"binder": "B17", "percentage of binding blocked": 100},
      {"binder": "B18", "percentage of binding blocked": "~40"}
    ]},
    {"biological_target": "antibody G1 Fab fragment", "assay": "Biacore competition: G1 Fab (50 nM) pre-incubated with competing peptide, flowed over human α-CGRP on SA chip", "from_the_text": "as §2, §3", "values": [
      {"binder": "B19", "binding result": "no binding (tested: 10 µM)"},
      {"binder": "B20", "binding result": "no binding (tested: 10 µM)"},
      {"binder": "B21", "binding result": "no binding (tested: 10 µM)"},
      {"binder": "B22", "binding result": "no binding (tested: 10 µM)"},
      {"binder": "B23", "binding result": "no binding (tested: 10 µM)"},
      {"binder": "B24", "binding result": "no binding (tested: 10 µM)"}
    ]},
    {"biological_target": "antibody G1 Fab fragment", "assay": "Biacore competition: G1 Fab (50 nM) pre-incubated 1 h with 10 µM competing peptide, then flowed over N-biotinylated human α-CGRP on SA chip; percent of binding to chip-bound human α-CGRP blocked", "from_the_text": "as §2, §3", "units": {"% Binding Blocked": "%"}, "values": [
      {"binder": "B25", "% Binding Blocked": 83.3},
      {"binder": "B26", "% Binding Blocked": 91.7},
      {"binder": "B13", "% Binding Blocked": 100},
      {"binder": "B14", "% Binding Blocked": 100},
      {"binder": "B15", "% Binding Blocked": 100},
      {"binder": "B16", "% Binding Blocked": 100},
      {"binder": "B17", "% Binding Blocked": 100},
      {"binder": "B18", "% Binding Blocked": 40.6},
      {"binder": "B19", "% Binding Blocked": 0.6}
    ]}
  ]
}
